The record followed here is publication PMC12680531, “A novel TM4SF4-targeting therapeutic antibody candidate with antitumor activity by blocking IGF1R and CD44 signaling and downregulating PD-L1 and B7-H4” (Theranostics, 2026).

No end group written: not given here.

The target of this assay is T1, biotinylated hTM4SF4 (T126-E140) peptide containing a GSAGGS spacer (Homo sapiens, also: biotin, position not given here, GSAGGS spacer, position not given here).
T1 construct: human TM4SF4, residues T126-E140 of the large extracellular loop; also called biotinylated hTM4SF4 peptide; hTM4SF4 peptide
T1 chain: TWGYPFHDGDYLNDE
Put plainly: SPR; Biacore T200; biotinylated hTM4SF4 peptide with GSAGGS spacer immobilised on a streptavidin chip; antibodies in two-fold dilutions (128-1 nM or 512-16 nM) in HBS-EP+; 25°C; 30 μL/min; 1:1 binding model. To be noted: both partners purified.

B1: murine anti-hTM4SF4 monoclonal antibody 2B7 (antibody, V domains shown)
VH: EVKLEESGPGILQPSQTLSLTCSFSGFSLSTYGIGVSWIRQPSGKGLEWLAHIWWNDNKYYNTALKSRLTISKDTSNNQVFLKIASVDTADTATYYCARKEGSSAPFAYWGQGTLVTVSA
VL: not shown
notes: VH of murine 2B7; mouse IgG1 heavy chain constant region; Vκ of murine 2B7; mouse kappa light chain constant region; murine IgG1, kappa; also called murine 2B7; anti-hTM4SF4 mAb 2B7; source: murine hybridoma, purified from culture supernatant (protein G chromatography)
Regarding B1, the Kd is 2.66 nM.

As usually defined, the Kd is a measure of binding affinity in units of concentration.
